Our source for the IC50 of inhibition of HT29 cell adhesion to immobilized vitronectin (blocks αvβ5 with vitronectin) values is paper PMC7695343.

The target of the assay is integrin αvβ5 on human colon adenocarcinoma HT-29 cells (human (endogenous in HT-29)) (UniProt P06756).
UniProt P06756, sequence (P06756 31-1048, chain 1 of 2): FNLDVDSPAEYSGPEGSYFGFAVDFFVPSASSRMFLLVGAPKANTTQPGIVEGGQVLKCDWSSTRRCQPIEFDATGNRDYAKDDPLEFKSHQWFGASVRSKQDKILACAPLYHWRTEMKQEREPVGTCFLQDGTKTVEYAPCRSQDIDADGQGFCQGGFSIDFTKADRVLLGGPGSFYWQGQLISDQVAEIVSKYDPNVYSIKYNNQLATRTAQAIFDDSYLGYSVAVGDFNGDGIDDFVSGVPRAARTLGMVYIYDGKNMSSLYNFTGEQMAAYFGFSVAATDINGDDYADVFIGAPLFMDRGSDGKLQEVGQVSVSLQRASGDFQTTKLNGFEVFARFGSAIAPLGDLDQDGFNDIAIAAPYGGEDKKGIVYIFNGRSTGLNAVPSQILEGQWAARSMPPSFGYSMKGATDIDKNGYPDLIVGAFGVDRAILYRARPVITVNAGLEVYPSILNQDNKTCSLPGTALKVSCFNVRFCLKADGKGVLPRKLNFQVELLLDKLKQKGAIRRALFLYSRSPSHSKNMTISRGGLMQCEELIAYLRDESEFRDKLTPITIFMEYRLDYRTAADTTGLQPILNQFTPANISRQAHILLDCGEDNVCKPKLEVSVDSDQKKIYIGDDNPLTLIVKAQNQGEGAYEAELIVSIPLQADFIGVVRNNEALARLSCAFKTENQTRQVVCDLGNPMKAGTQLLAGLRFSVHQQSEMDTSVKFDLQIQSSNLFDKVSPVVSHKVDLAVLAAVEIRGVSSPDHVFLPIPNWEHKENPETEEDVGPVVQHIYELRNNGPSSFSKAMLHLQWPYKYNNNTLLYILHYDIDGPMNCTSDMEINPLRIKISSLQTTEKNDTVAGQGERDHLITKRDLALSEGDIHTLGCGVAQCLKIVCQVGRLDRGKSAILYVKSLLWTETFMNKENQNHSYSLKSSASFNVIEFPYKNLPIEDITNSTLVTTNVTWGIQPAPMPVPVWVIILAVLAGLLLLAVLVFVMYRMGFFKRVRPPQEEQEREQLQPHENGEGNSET
UniProt P06756, sequence (P18084 24-799, chain 2 of 2, further chain): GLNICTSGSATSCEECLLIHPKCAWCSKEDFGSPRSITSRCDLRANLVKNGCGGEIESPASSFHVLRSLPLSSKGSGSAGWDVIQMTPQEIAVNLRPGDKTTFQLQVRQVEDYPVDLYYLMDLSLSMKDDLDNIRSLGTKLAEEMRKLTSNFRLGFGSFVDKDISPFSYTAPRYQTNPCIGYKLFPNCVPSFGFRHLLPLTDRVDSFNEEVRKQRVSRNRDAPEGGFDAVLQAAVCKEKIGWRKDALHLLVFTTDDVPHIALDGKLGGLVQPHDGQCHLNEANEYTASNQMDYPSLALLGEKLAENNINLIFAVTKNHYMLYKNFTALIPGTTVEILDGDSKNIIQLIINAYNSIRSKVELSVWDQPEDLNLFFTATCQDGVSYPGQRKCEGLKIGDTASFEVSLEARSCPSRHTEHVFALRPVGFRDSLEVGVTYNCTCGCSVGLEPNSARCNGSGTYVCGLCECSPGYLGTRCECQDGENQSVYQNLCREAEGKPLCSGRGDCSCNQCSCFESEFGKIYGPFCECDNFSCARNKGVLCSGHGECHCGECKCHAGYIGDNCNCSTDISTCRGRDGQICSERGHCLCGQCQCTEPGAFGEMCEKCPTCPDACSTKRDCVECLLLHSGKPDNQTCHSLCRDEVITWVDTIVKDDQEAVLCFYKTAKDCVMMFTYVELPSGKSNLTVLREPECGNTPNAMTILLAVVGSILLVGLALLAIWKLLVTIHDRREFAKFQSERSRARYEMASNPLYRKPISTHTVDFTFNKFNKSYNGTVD

In the case of “Echistatin (Ech), recombinant wild type with 6xHis-tag (natural protein)”, the IC50 of inhibition of HT29 cell adhesion to immobilized vitronectin (blocks αvβ5 with vitronectin) amounted to 286 nM.
